# Measured values from patent US12673985B2, “Method for the treatment or prophylaxis of cancer by targeting the extracellular portion of keratin 14 (KRT14) residing on cancer cells” (Hudson Institute of Medical Research, priority 2019, dated 2026).
# “Also recorded” adds a separate entry of the source.
# T1: full-length recombinant KRT14 protein (Homo sapiens, UniProt P02533)
# T1 construct: A 1 μg aliquot of full-length recombinant KRT14 protein (Abcam #ab73637) was separated by SDS PAGE; purchased Abcam ab73637
# T1 sequence (P02533 1-472): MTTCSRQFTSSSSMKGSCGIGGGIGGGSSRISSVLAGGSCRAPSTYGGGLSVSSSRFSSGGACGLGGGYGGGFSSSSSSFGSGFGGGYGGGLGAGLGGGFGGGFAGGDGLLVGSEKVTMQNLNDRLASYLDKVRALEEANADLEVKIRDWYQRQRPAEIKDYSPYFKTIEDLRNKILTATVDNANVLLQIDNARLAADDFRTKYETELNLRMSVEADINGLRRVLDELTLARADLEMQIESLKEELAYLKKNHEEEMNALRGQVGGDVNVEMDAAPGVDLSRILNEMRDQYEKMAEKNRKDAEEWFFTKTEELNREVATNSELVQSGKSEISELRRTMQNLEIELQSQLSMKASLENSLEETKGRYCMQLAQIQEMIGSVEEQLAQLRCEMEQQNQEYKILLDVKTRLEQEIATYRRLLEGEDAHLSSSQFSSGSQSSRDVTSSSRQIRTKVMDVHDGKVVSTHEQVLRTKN
# B1: mAb AN-17: monoclonal anti-KRT14 antibody; heavy chain variable region SEQ ID NO:3, light chain variable region SEQ ID NO:5 (clone AN-17A RG4.E5b.A7.B4) (antibody, listed as Mus musculus, V domains shown)
# VH: QVQLKESGPGLVAPSQSLSITCTVSGFSLSRYSVHWVRQPPGKGLEWLGMIWGGGSTDYNSALKSRLSISKDNSKSQVFLKMNSLQTDDTAMYYCARKDYGYSYFDYWGQGTTLTVSS
# VL: DVLMTQTPLSLPVSLGDQASISCRSSQSIVHSNGNTYLEWYLQKPGQSPKLLIYKVSNRFSGVPDRFSGSGSGTDFTLKISRVEAEDLGVYYCFQGSHVPFTFGSGTKLEIKRADAAPTVS
# Legend:
# [1] = biological target: T1, full-length recombinant KRT14 protein; assay: Western blotting for KRT14 detection; format: binding; conditions: dilutions 1:1000 to 1:10,000; 1 μg protein
# Protocol: Western Blot analyses. SDS-PAGE and western blotting were performed as previously described in Bilandzic et al. (2013) Mol Endocrinol, 2013. 27(3):466-79). Blots were probed using antibodies against KRT14 (1:1000, SAB4501657), mAb AN-17 and β-actin (1:20,000; Sigma-Aldrich, Castle Hill, Australia). Secondary antibodies HRP-conjugated goat anti-mouse, anti-rabbit and donkey anti-goat (1:50,000; Merck Millipore, Kilsyth, Australia) were used Bilandzic et al. (2013) Mol Endocrinol, 2013. 27(3):466-79). Protein bands were detected using Clarity Western ECL blotting substrate (Biorad #1705061) and visualized using a ChemiDoc (Trade Mark) MP System (Bio-Rad, #1708280).
# A 1 μg aliquot of full-length recombinant KRT14 protein (Abcam #ab73637) was separated by SDS PAGE and transferred to PVDF membrane using standard procedures (PMID: 23952987). The membrane was probed with mAb AN-17 at dilutions of 1:1000, 1:5000 and 1:10,000. Secondary antibody was goat anti-mouse HRP conjugate (1:50,000 dilution), with detection of KRT14 using chemiluminescence according to standard protocols (PMID: 23952987; Rainczuk et al., J Proteome Res. 2013; 12(9):4074-88).
# [2] = system: AN3CA endometrial carcinoma; assay: In vitro wound repair assay; format: cell-based; conditions: antibody 1 μg/ml; 16 hours
# Protocol: (§1) In vitro wound repair assay. Ovarian cancer cells (or other cancer cell lines—BT16, NCI-H1573, AN3CA, SW620 and MDA-MB-468) were grown in complete medium to confluency in a 12-well plate, then serum-starved overnight to synchronize at G0. The following day cell culture medium was removed, and cell monolayers were wounded by scraping with a pipette tip attached to suction. Non-adherent cells were removed by gentle washes with PBS, and complete growth medium with or without mAb AN-17 (1 μg/ml) or commercial KRT14 polyclonal antibody (1 μg/ml) was replaced. The wound area was imaged under a phase microscope (Leica) at regular intervals ranging from 0-72 h. Wound closure was measured in image series using AnalySIS LS Research Software (Olympus) to determine the area of the wound on each day. Experiments were repeated in triplicate with at least six wound areas observed per growth condition.
# (§2) In vitro wound repair assays were conducted using AN3CA endometrial carcinoma and SW620 colorectal carcinoma lines. Cells were grown in complete medium to confluency in a 12-well plate, then serum-starved overnight to synchronize at G0. The following day cell culture medium was removed, and cell monolayers were wounded by scraping with a pipette tip attached to suction. […] Wound closure was measured in image series using AnalySIS LS Research Software (Olympus) to determine the area of the wound on each day. […]
# [3] = system: SW620 colorectal carcinoma; assay: In vitro wound repair assay; format: cell-based; conditions: antibody 1 μg/ml; 16 hours
# Protocol: as §1, §2
molecule,measurement,setting,value
B1,detection of KRT14 protein by western blotting,[1],successfully detected KRT14 protein
same,"wound closure / migration, AN3CA",[2],failed to close the wound; also recorded: impaired
same,"wound closure / migration, SW620",[3],failed to close the wound; also recorded: impaired
